Data set [1] deals with the molecule itself. As to the kind of experiment: SEC + other: negative-stain EM.
The target of data set [2] is T1, NLRP1 (wild-type full-length human NLRP1) (human, UniProt Q9C000-1).
T1 sequence: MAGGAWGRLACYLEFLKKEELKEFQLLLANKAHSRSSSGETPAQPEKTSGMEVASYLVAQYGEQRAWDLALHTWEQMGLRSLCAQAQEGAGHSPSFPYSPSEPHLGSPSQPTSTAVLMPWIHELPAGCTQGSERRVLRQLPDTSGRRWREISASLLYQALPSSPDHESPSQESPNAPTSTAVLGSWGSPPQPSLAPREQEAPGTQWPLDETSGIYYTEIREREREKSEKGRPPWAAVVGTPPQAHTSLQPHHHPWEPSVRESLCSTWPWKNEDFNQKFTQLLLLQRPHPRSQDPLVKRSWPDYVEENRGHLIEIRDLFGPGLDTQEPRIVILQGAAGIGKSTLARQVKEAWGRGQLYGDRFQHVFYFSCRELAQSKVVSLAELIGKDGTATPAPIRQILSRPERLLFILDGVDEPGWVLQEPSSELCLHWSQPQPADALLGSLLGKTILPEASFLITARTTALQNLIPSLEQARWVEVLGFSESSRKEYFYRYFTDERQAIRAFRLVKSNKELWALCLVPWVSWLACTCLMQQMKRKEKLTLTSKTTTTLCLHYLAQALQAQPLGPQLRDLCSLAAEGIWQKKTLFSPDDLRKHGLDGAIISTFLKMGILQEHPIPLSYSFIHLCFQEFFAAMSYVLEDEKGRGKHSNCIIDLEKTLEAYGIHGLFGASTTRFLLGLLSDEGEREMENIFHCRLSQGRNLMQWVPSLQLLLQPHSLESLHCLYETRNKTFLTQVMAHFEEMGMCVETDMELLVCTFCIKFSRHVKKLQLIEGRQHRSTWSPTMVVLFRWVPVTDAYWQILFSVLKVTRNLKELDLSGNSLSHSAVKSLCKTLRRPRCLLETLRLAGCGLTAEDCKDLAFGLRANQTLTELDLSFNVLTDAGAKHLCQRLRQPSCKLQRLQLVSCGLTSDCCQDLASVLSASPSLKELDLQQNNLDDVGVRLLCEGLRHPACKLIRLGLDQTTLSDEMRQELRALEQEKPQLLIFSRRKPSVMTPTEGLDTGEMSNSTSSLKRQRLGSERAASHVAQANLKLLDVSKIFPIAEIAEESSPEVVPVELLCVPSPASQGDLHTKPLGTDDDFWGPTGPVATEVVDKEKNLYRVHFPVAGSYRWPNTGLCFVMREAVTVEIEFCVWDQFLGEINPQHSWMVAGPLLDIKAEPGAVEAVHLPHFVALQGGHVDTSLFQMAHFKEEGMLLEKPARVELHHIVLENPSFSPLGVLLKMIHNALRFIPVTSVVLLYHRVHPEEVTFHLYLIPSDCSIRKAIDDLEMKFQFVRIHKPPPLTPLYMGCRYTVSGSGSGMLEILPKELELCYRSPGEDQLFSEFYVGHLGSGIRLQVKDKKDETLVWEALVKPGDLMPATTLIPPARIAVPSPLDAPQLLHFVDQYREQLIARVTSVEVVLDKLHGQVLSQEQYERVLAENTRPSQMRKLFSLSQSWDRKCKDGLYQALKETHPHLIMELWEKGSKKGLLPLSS
As to the kind of experiment: co-IP.

Three molecules from article doi:10.1101/2022.06.26.497666 (bioRxiv, 2022) can be followed below.

B1: MBP-NLRP1 NACHT-LRR F787_R843del mutant (domain or fragment)
chain: GRPPWAAVVGTPPQAHTSLQPHHHPWEPSVRESLCSTWPWKNEDFNQKFTQLLLLQRPHPRSQDPLVKRSWPDYVEENRGHLIEIRDLFGPGLDTQEPRIVILQGAAGIGKSTLARQVKEAWGRGQLYGDRFQHVFYFSCRELAQSKVVSLAELIGKDGTATPAPIRQILSRPERLLFILDGVDEPGWVLQEPSSELCLHWSQPQPADALLGSLLGKTILPEASFLITARTTALQNLIPSLEQARWVEVLGFSESSRKEYFYRYFTDERQAIRAFRLVKSNKELWALCLVPWVSWLACTCLMQQMKRKEKLTLTSKTTTTLCLHYLAQALQAQPLGPQLRDLCSLAAEGIWQKKTLFSPDDLRKHGLDGAIISTFLKMGILQEHPIPLSYSFIHLCFQEFFAAMSYVLEDEKGRGKHSNCIIDLEKTLEAYGIHGLFGASTTRFLLGLLSDEGEREMENIFHCRLSQGRNLMQWVPSLQLLLQPHSLESLHCLYETRNKTFLTQVMAHFEEMGMCVETDMELLVCTFCIKFSRHVKKLQLIEGRQHRSTWSPTMVVLLAGCGLTAEDCKDLAFGLRANQTLTELDLSFNVLTDAGAKHLCQRLRQPSCKLQRLQLVSCGLTSDCCQDLASVLSASPSLKELDLQQNNLDDVGVRLLCEGLRHPACKLIRLGLDQTTLSDEMRQELRALEQEKPQLLIFSRRKPSVMTP
With B1, the binding result in data set [1] is reported as “binds”.

B2: MBP-NLRP1 NACHT-LRR R726W mutant (domain or fragment)
chain: GRPPWAAVVGTPPQAHTSLQPHHHPWEPSVRESLCSTWPWKNEDFNQKFTQLLLLQRPHPRSQDPLVKRSWPDYVEENRGHLIEIRDLFGPGLDTQEPRIVILQGAAGIGKSTLARQVKEAWGRGQLYGDRFQHVFYFSCRELAQSKVVSLAELIGKDGTATPAPIRQILSRPERLLFILDGVDEPGWVLQEPSSELCLHWSQPQPADALLGSLLGKTILPEASFLITARTTALQNLIPSLEQARWVEVLGFSESSRKEYFYRYFTDERQAIRAFRLVKSNKELWALCLVPWVSWLACTCLMQQMKRKEKLTLTSKTTTTLCLHYLAQALQAQPLGPQLRDLCSLAAEGIWQKKTLFSPDDLRKHGLDGAIISTFLKMGILQEHPIPLSYSFIHLCFQEFFAAMSYVLEDEKGRGKHSNCIIDLEKTLEAYGIHGLFGASTTRFLLGLLSDEGEREMENIFHCRLSQGRNLMQWVPSLQLLLQPHSLESLHCLYETWNKTFLTQVMAHFEEMGMCVETDMELLVCTFCIKFSRHVKKLQLIEGRQHRSTWSPTMVVLFRWVPVTDAYWQILFSVLKVTRNLKELDLSGNSLSHSAVKSLCKTLRRPRCLLETLRLAGCGLTAEDCKDLAFGLRANQTLTELDLSFNVLTDAGAKHLCQRLRQPSCKLQRLQLVSCGLTSDCCQDLASVLSASPSLKELDLQQNNLDDVGVRLLCEGLRHPACKLIRLGLDQTTLSDEMRQELRALEQEKPQLLIFSRRKPSVMTP
For B2, in data set [1], the binding result is “binds”.

B3: CARD8-T60 isoform (full-length) (natural protein)
chain: MEKKECPEKSSSSEEELPRRDSGSSRNIDASKLIRLQGSRKLLVDNSIRELQYTKTGIFFQAEACVTNDTVYRELPCVSETLCDISHFFQEDDETEAEPLLFRAVPECQLSGGDIPSVSEEQESSEGQDSGDICSEENQIVSSYASKVCFEIEEDYKNRQFLGPEGNVDVELIDKSTNRYSVWFPTAGWYLWSATGLGFLVRDEVTVTIAFGSWSQHLALDLQHHEQWLVGGPLFDVTAEPEEAVAEIHLPHFISLQAGEVDVSWFLVAHFKNEGMVLEHPARVEPFYAVLESPSFSLMGILLRIASGTRLSIPITSNTLIYYHPHPEDIKFHLYLVPSDALLTKAIDDEEDRFHGVRLQTSPPMEPLNFGSSYIVSNSANLKVMPKELKLSYRSPGEIQHFSKFYAGQMKEPIQLEITEKRHGTLVWDTEVKPVDLQLVAASAPPPFSGAAFVKENHRQLQARMGDLKGVLDDLQDNEVLTENEKELVEQEKTRQSKNEALLSMVEKKGDLALDVLFRSISERDPYLVSYLRQQNL
Regarding B3, in data set [2], the binding result was “binds”.
